Source: the Human Domainome abundance scans (Beltran et al. 2025)
± gives the uncertainty stated by the source.

B1: POU domain, class 5, transcription factor 1, residues 134 to 212; numbered along this chain, Q01860 (parent)
chain: EESQDIKALQKELEQFAKLLKQKRITLGYTQADVGLTLGVLFGKVFSQTTICRFEALQLSFKNMCKLRPLLQKWVEEAD

Variants of: B1
Test: abundance fitness (aPCA) (normalised: wild type 0, dead -1); higher = more abundant; growth selection in yeast, the domain comes from the species named
Details: Homo sapiens

Variant	abundance fitness
EESQDIKALQKELEQFAKLLKQKRITLGYTQADVGLTLGMLFGKVFSQTTICRFEALQLSFKNMCKLRPLLQKWVEEAD [V40M]	-0.087 ± 0.13
EESQDIKALQKELEQFAKLLKQKRITLGYTQAEVGLTLGVLFGKVFSQTTICRFEALQLSFKNMCKLRPLLQKWVEEAD [D33E]	-0.081 ± 0.13
EESQDIKALQKELMQFAKLLKQKRITLGYTQADVGLTLGVLFGKVFSQTTICRFEALQLSFKNMCKLRPLLQKWVEEAD [E14M]	-0.307 ± 0.22
EESQDIKALQKELEQFAKLLKQKRITLGYTQADVGLTLGVLFGKVFSLTTICRFEALQLSFKNMCKLRPLLQKWVEEAD [Q48L]	-0.435 ± 0.35
EESQDIKALQKELEQFAKLLKQKRITLGYTQADVGLTLGVLFGKVFSKTTICRFEALQLSFKNMCKLRPLLQKWVEEAD [Q48K]	0.079 ± 0.31
EESQDIKALQKELEQFAKLLKQKRITLGYTQADVGLTLGVLFGKVFSETTICRFEALQLSFKNMCKLRPLLQKWVEEAD [Q48E]	0.484 ± 0.14
EESQDIKALQEELEQFAKLLKQKRITLGYTQADVGLTLGVLFGKVFSQTTICRFEALQLSFKNMCKLRPLLQKWVEEAD [K11E]	-0.031 ± 0.11
EESQDIKALQKELEQFAKLLKQKRISLGYTQADVGLTLGVLFGKVFSQTTICRFEALQLSFKNMCKLRPLLQKWVEEAD [T26S]	0.329 ± 0.18
EESQDIKALQKELEQFAKLLKQKRIMLGYTQADVGLTLGVLFGKVFSQTTICRFEALQLSFKNMCKLRPLLQKWVEEAD [T26M]	-0.256 ± 0.42
EESQDIKALQKELEQFAKLLKQKRINLGYTQADVGLTLGVLFGKVFSQTTICRFEALQLSFKNMCKLRPLLQKWVEEAD [T26N]	0.268 ± 0.45
EESQDIKALQKELEQFAKLLKQKRIVLGYTQADVGLTLGVLFGKVFSQTTICRFEALQLSFKNMCKLRPLLQKWVEEAD [T26V]	-0.212 ± 0.19
EESQDIKALQKELEQFAKLLKQLRITLGYTQADVGLTLGVLFGKVFSQTTICRFEALQLSFKNMCKLRPLLQKWVEEAD [K23L]	-0.608 ± 0.37
EESQDIKALQKELEQFAKLLKQKRITVGYTQADVGLTLGVLFGKVFSQTTICRFEALQLSFKNMCKLRPLLQKWVEEAD [L27V]	-0.588 ± 0.14
EESQDIKALQKELEQFAKLLKQKRITNGYTQADVGLTLGVLFGKVFSQTTICRFEALQLSFKNMCKLRPLLQKWVEEAD [L27N]	-0.429 ± 0.36
EESQDIKALQKSLEQFAKLLKQKRITLGYTQADVGLTLGVLFGKVFSQTTICRFEALQLSFKNMCKLRPLLQKWVEEAD [E12S]	-0.094 ± 0.11
EESQDIKALQKMLEQFAKLLKQKRITLGYTQADVGLTLGVLFGKVFSQTTICRFEALQLSFKNMCKLRPLLQKWVEEAD [E12M]	-0.38 ± 0.24
EESQDIKALQKELEQFAKLLKQKRITLGYTQADVGLTLGVLFGKVFSQTTICRFEALQLSFKNMCKLRPLLQKWVPEAD [E76P]	-0.892 ± 0.39
EESQDIKALQKELEQFAKLLKQKRITLGYTQADVGLTLGVLFGKVFSQTTICRFEALQLSFKNMCKLRPLLQKWVCEAD [E76C]	-0.066 ± 0.19
EESQDIKALQKELEQFAKLLKQKRITLGYTQADVGLTLGVLFGKVFSQTTICRFEALQLSFKNMCKLRPLLQKWPEEAD [V75P]	-0.203 ± 0.24
EESQDIKALQKELEQFAKLLKQKRITLGYTQADVGLTLGVLFGKVFSQTTICRFEALQLSFKNMCKLRPLLQKWTEEAD [V75T]	-0.299 ± 0.23
EESQDIKALQKELEQFAKRLKQKRITLGYTQADVGLTLGVLFGKVFSQTTICRFEALQLSFKNMCKLRPLLQKWVEEAD [L19R]	-0.284 ± 0.15
EESQDIKALQKELEQFAKTLKQKRITLGYTQADVGLTLGVLFGKVFSQTTICRFEALQLSFKNMCKLRPLLQKWVEEAD [L19T]	-0.49 ± 0.32
EESQDIKALQKELEQFAKLLKQKRITLGYTQADVGLTLGVLVGKVFSQTTICRFEALQLSFKNMCKLRPLLQKWVEEAD [F42V]	0.127 ± 0.046

Variant	abundance fitness
EESQDIKALQKELEQFAKLLKQKRITLGYTQADVGLTLGVLFGKVFSQTTICRFEALQLSFKNMCKWRPLLQKWVEEAD [L67W]	-0.851 ± 0.26
EESQDIKTLQKELEQFAKLLKQKRITLGYTQADVGLTLGVLFGKVFSQTTICRFEALQLSFKNMCKLRPLLQKWVEEAD [A8T]	0.429 ± 0.3
EESQDIKCLQKELEQFAKLLKQKRITLGYTQADVGLTLGVLFGKVFSQTTICRFEALQLSFKNMCKLRPLLQKWVEEAD [A8C]	0.222 ± 0.21
EESQDIKALQKELEQFAMLLKQKRITLGYTQADVGLTLGVLFGKVFSQTTICRFEALQLSFKNMCKLRPLLQKWVEEAD [K18M]	0.052 ± 0.15
EESQDIKALQKELEQFAKLLKQKRITLGYTQADVGLTLGVLFGKVFSQTMICRFEALQLSFKNMCKLRPLLQKWVEEAD [T50M]	-0.27 ± 0.29
EESQDIKALQKELEQFAKLLKQKRITLGYTQADVGLTLGVLFGKVFSQTAICRFEALQLSFKNMCKLRPLLQKWVEEAD [T50A]	-0.316 ± 0.15
EESQDIKALQKELEQFAKLLKQKRITLGYTQADVGLTLGVLFGKVFSQTCICRFEALQLSFKNMCKLRPLLQKWVEEAD [T50C]	-0.298 ± 0.31
EESQDIKALQKELEQFAKLLKQKRITLGYTQADVGLTLVVLFGKVFSQTTICRFEALQLSFKNMCKLRPLLQKWVEEAD [G39V]	-0.85 ± 0.27
EESQDIKALQKELEQFAKLLKQKRITLGYTQADVGLTLAVLFGKVFSQTTICRFEALQLSFKNMCKLRPLLQKWVEEAD [G39A]	-0.534 ± 0.19
EESQDIKALQKELEQFAKLLKQKRITLGYTQADVGLTLEVLFGKVFSQTTICRFEALQLSFKNMCKLRPLLQKWVEEAD [G39E]	-0.469 ± 0.17
EESQDIKALQKELEQFAKLLKQKRITLGYTQADVGLTGGVLFGKVFSQTTICRFEALQLSFKNMCKLRPLLQKWVEEAD [L38G]	-0.832 ± 0.18
EESQDIKALQKELEQFAKLLKQKRITLGYTQADVGLTKGVLFGKVFSQTTICRFEALQLSFKNMCKLRPLLQKWVEEAD [L38K]	-0.603 ± 0.31
EESQDIKALQKELEQFAKLLKQKRITLGYTQADVGLTLGVLFGKVFSQTTICRFEALQLSFKNMCKLDPLLQKWVEEAD [R68D]	-0.621 ± 0.4
EESQDIKALQKELEQFAKLLKQKRITLGYTQADVGLTLGVLFGKVFSQTTICRFEALLLSFKNMCKLRPLLQKWVEEAD [Q58L]	-0.43 ± 0.3
EESQDIKALQKELEQFAKLLKQKRITLGYTQADVGLTLGVLFGKVFSQTTICRFEALKLSFKNMCKLRPLLQKWVEEAD [Q58K]	-0.035 ± 0.2
EESQDIKALQKELEQFAKLLKQKRITLGYTQADVGLTLGVLFGKVFSQTTICRFEALQLSFKNMCKLRPLLQKWVETAD [E77T]	-0.129 ± 0.19
EESQDIKALQKELEQWAKLLKQKRITLGYTQADVGLTLGVLFGKVFSQTTICRFEALQLSFKNMCKLRPLLQKWVEEAD [F16W]	-0.341 ± 0.3
EESQDIKALQKELEQEAKLLKQKRITLGYTQADVGLTLGVLFGKVFSQTTICRFEALQLSFKNMCKLRPLLQKWVEEAD [F16E]	-0.438 ± 0.39
EESQDIKALQKELEQFAKLLKQKRITLKYTQADVGLTLGVLFGKVFSQTTICRFEALQLSFKNMCKLRPLLQKWVEEAD [G28K]	-0.569 ± 0.34
EESQDIKALQKELEQFAKLLKQKRITLGYTWADVGLTLGVLFGKVFSQTTICRFEALQLSFKNMCKLRPLLQKWVEEAD [Q31W]	0.078 ± 0.12
EESQDIYALQKELEQFAKLLKQKRITLGYTQADVGLTLGVLFGKVFSQTTICRFEALQLSFKNMCKLRPLLQKWVEEAD [K7Y]	-0.12 ± 0.14
EESQDIVALQKELEQFAKLLKQKRITLGYTQADVGLTLGVLFGKVFSQTTICRFEALQLSFKNMCKLRPLLQKWVEEAD [K7V]	-0.085 ± 0.065
EESQDIKALQKELEQFAKLLKQKRITLGYTQADVGLTLGVLFGKVFSQTTICRFEALQLVFKNMCKLRPLLQKWVEEAD [S60V]	-0.843 ± 0.25

Variant	abundance fitness
EESQDIKALQKELEQFAKLLKQKRITLGYTQADVGLTLGVLFGKVFSQTTICRFEALQLAFKNMCKLRPLLQKWVEEAD [S60A]	-0.273 ± 0.14
EESQDIKALQKELEQFAKLLKQKRITLGYTQADVGLTLGVLFGKGFSQTTICRFEALQLSFKNMCKLRPLLQKWVEEAD [V45G]	-0.153 ± 0.043
EESQDIKALQKELEQFAKLLKQKRITLGYTQADVGLTLGVLFGKSFSQTTICRFEALQLSFKNMCKLRPLLQKWVEEAD [V45S]	0.012 ± 0.077
EESQDIKALQKELEQFAKLLKQKRITLGYTQADVGATLGVLFGKVFSQTTICRFEALQLSFKNMCKLRPLLQKWVEEAD [L36A]	0.273 ± 0.065
EESQDIKALQKELEQFAKLLKQKRITLGYTQADVGLTLGVLFGKVFSQTTICRFEALQLSFKNMCKLRPLLTKWVEEAD [Q72T]	-0.36 ± 0.17
EESQDIKALQKELEQFAKLLKQKRITLGYTQADVGLTLGVLFGKVFSQTTICRFEALQLSFKNMCKLRPLLWKWVEEAD [Q72W]	-0.837 ± 0.31
EESQDIKALQKELEQFAKLMKQKRITLGYTQADVGLTLGVLFGKVFSQTTICRFEALQLSFKNMCKLRPLLQKWVEEAD [L20M]	-0.452 ± 0.39
EESQDIKALQKELEQFAKLEKQKRITLGYTQADVGLTLGVLFGKVFSQTTICRFEALQLSFKNMCKLRPLLQKWVEEAD [L20E]	-0.313 ± 0.24
EESQDIKALQKELEQFAKLLKQKRITLGYTQADVGLTLGVLFGKVFSQTTICRFEALQLSFKNMCKLRPLLQKWVEEAG [D79G]	-0.312 ± 0.13
EESQDIKALQKELEQFAKLLKQKRITLGYTQADVGLTLGVLFGKVCSQTTICRFEALQLSFKNMCKLRPLLQKWVEEAD [F46C]	0.311 ± 0.14
EESQDIKALQKELEQFAKLLKQKRITLGYTQADVGLTLGVLFGKVFSQTTICRFEALQLSRKNMCKLRPLLQKWVEEAD [F61R]	-0.422 ± 0.1
EESQDIKALQKELEQFAKLLKQKRITLGYTQADVGLTLGVLFGKVFSQTTICRFEHLQLSFKNMCKLRPLLQKWVEEAD [A56H]	-0.245 ± 0.21
EESQDIKALQKELEQFAKLLKQKRITLGYTQADVGLTLGVLFGKVFSQTTISRFEALQLSFKNMCKLRPLLQKWVEEAD [C52S]	0.341 ± 0.2
EESFDIKALQKELEQFAKLLKQKRITLGYTQADVGLTLGVLFGKVFSQTTICRFEALQLSFKNMCKLRPLLQKWVEEAD [Q4F]	-0.059 ± 0.24
EESEDIKALQKELEQFAKLLKQKRITLGYTQADVGLTLGVLFGKVFSQTTICRFEALQLSFKNMCKLRPLLQKWVEEAD [Q4E]	-0.13 ± 0.1
EESQDIKALQKELEQFAKLLKQKRITLGYTQADVGLTLGVLFGKVFSQTTICRFEALQLSFRNMCKLRPLLQKWVEEAD [K62R]	-0.143 ± 0.083
EESQDIKASQKELEQFAKLLKQKRITLGYTQADVGLTLGVLFGKVFSQTTICRFEALQLSFKNMCKLRPLLQKWVEEAD [L9S]	0.136 ± 0.078
EESQDIKALQKELEQFAKLLKQKRITLGYTQADVGLTLGVLFGKVFSQTTICRFEATQLSFKNMCKLRPLLQKWVEEAD [L57T]	-0.344 ± 0.29
EESQDIKALQKELEQFAKLLKQKRITLGYTQADVGLTLGVLFGGVFSQTTICRFEALQLSFKNMCKLRPLLQKWVEEAD [K44G]	-0.382 ± 0.079
EESQDIKALQKELEQFAKLLKQKRITLGYTQADVGLTLGVLFGKVFSQTTICRFEALQLSFKNWCKLRPLLQKWVEEAD [M64W]	-0.667 ± 0.22
EESQDIKALQKELEQFAKLLKQKRITLGYTQADVGLTLGVLFGKVFSQTTICRFEALQLSFKNACKLRPLLQKWVEEAD [M64A]	-0.251 ± 0.11
EESQDIKALQKELEQFAKLLKQKRITLGYTQADVGLTLGVLFGKVFSQTTICRFEALQLSFKNMQKLRPLLQKWVEEAD [C65Q]	0.074 ± 0.13
EESQDIKALQKELEQFAKLLKQKRITLGYTQADVGLTLGVLFGKVFSQTTICRFGALQLSFKNMCKLRPLLQKWVEEAD [E55G]	-0.66 ± 0.15
